This assay addresses T1, 融合蛋白3AN (FMDV 3A epitope fused to PRRSV N protein).
T1 construct: also called 3AN融合蛋白; 3AN蛋白抗原
Briefly: ELISA, biotin-labelled C8 detects 3AN captured by 3A24.

The results in this text go back to patent CN113336845A (LANZHOU VETERINARY RES INST CAAS, dated 2021).

B1: 猪繁殖与呼吸综合征病毒核衣壳蛋白的猪源单个B细胞抗体C8 (antibody, V domains shown)
VH: GLVQPGGSLRLSCVASGFTFSSYIVTWVRQSPGKGLEWLAGTGVGEYALYYRNSVRGRFTLSRDNSQNTAYLQMNSLRVEETGRYFCRRGAAESVDLWGPGVEVVVSS
VL: QEPAMSVSLGGTVTLTCAFSSGSVTRSHWPSWFQLTPGQPPRTLIVSTDSRPTGVPSRFSGAISGYKAALTITGAQPEDEADYVCGVYFTFTKRPFGGGTHLTVLG
notes: also called C8单抗; 单克隆抗体C8
In the case of B1, the binding result is “binds”.
